Data reported in patent US20250313621A1.
Blank lines part the entries; values can stand above or below the binder they belong to.

Assays:
[1] = molecular target: Wildtype human PAR2 expressed on cells (human) (UniProt P55085); test: cell-based or functional assay
[2] = molecular target: Cynomolgus PAR2 on BacMam-infected HEK293 cells (cynomolgus); test: flow cytometry on HEK293F-cynoPAR2 (3.0E+06 cells/mL, w/ NaN3), overnight at about 5 C, S/BG [continued]
[3] = molecular target: Wildtype human PAR2 expressed on cells (human) (UniProt P55085); test: flow cytometry on HEK293F-humanPAR2 (3.0E+06 cells/mL, w/ NaN3), overnight at about 5 C, S/BG

Chain of Wildtype human PAR2 expressed on cells (human) (P55085 37-397 limits assumed): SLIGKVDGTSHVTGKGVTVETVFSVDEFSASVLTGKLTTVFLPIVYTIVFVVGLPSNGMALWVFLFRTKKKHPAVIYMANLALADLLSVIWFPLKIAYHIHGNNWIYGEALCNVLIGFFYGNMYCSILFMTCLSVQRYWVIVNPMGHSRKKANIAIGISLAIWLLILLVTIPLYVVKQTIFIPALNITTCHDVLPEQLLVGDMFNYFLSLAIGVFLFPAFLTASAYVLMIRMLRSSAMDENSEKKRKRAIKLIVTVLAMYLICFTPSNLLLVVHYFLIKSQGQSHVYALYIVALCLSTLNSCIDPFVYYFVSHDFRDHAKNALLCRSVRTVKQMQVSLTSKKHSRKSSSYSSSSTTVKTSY

% Max Inhibition, PAR1 peptide SFLLR-NH2 challenge, IP-One [1]: 3%
B1: Benchmark 2 (antibody, from another filing, V domains shown)
VH: EVQLLESGGGLVQPGGSLRLSCAASGFTFSSYAMNWVRQAPGKGLEWVSTISYHGSHISYHDSVHHRFTISRDNSKNTLYLQMNSLRAEDTAVYYCARIHHDPMDVWGQGTLVTVSS
VL: SIELTQPPSVSVSPGQTASITCSGDNLGKKYVQWYQQKPGQSPVLVIYDDSNRPSGIPERFSGSNSGNTATLTISGTQAMDEADYYCQTWDGNPTTGETNVFGGGTKLTVL

EC50 (read off the curve) [2]: 1 nM
EC50 (read off the curve) [3]: 1 nM
B2: Benchmark 4 IgG (antibody, from another filing, V domains shown)
VH: EVQLVQSGAEVKKPGESLKISCKGSGYNFISHWIGWVRQMPGKGLEWMGMIYPGDSDTRYSPSFQGQVTISADKSINTAYLQWRSLKASDTAMYFCARHGGITGTTFYYDFGMDVWGQGTTVTVSS
VL: SYELTQPPSVSVSPGQTARITCSGDALPKQYASWYQQKPGQAPLLVIYRDSERPSGLPERFSGSSSGTTVTLTISGVQAEDEADYYCQSADSGGSYVFGTGTKVTVL

EC50 (read off the curve) [2]: 2 nM
EC50 (read off the curve) [3]: 1 nM
B3: Benchmark 3 IgG (antibody, from another filing, V domains shown)
VH: QVQLVESGGGVVQPGRSLRLSCVASGFTFSRYGIHWVRQAPGKGLEWVIVISYDGINKYYADSVKGRFTISRDNSKNTVYLQMNSLRAEDTAVYYCAKGDFWSGYFDYWGQGTLVTVSS
VL: DIVMTQTPLSSPVTLGQPASISCRSSQSLVHSDGNTYLSWLHQRPGQPPRLLIYKISNRFSGVPDRFSGSGAGTDFTLQISRVEAEDVGIYYCMQATQFPTFGGGTKVEIK
